Test results: PMC4045772 (PLoS ONE, 2014)

Target: biotinylated Cul3/Rbx1 (UniProt Q13618 1-768; P62877 1-108, biotin (BirA biotinylation of the Avi tag))
Assay: AlphaScreen or HTRF; 30 nM His-tagged Keap1 (35-235) incubated with CDDO or DMSO 2.5 h at 37°C, then 30 nM biotinylated Cul3/Rbx1 1.5 h at room temperature; nickel chelate donor beads and streptavidin acceptor beads
Conditions: both partners purified

Sequence of biotinylated Cul3/Rbx1 (Q13618 whole entry, chain 1 of 2): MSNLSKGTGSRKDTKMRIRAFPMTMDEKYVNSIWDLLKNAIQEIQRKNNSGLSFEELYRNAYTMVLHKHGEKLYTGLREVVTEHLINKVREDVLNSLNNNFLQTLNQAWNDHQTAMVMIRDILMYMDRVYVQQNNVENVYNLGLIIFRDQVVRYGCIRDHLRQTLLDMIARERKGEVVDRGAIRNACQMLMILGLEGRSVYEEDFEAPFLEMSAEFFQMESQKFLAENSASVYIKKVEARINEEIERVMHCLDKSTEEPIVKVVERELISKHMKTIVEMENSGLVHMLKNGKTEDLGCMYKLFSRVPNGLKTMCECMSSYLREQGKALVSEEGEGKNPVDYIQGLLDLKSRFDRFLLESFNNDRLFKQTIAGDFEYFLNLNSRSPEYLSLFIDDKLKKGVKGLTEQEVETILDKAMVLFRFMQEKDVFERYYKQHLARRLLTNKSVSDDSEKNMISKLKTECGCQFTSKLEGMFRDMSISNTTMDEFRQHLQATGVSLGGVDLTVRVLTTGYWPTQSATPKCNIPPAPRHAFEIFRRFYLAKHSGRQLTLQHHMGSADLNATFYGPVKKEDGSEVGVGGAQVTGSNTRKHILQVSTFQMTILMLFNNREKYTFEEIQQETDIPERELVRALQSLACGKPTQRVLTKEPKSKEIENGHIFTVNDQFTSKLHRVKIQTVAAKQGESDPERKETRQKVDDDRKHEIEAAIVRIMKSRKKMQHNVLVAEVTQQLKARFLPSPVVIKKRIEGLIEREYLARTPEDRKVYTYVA
Sequence of biotinylated Cul3/Rbx1 (P62877 whole entry, chain 2 of 2): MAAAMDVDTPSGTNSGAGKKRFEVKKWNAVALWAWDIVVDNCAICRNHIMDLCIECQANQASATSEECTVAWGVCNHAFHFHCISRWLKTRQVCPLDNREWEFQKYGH

binding result: binds
B1: Keap1 BTB with the first ~50 residues of the BACK domain (residues 35-235), C151S (domain or fragment, human, UniProt Q14145 35-235, looked up)
chain: STECKAEVTPSQHGNRTFSYTLEDHTKQAFGIMNELRLSQQLCDVTLQVKYQDAPAAQFMAHKVVLASSSPVFKAMFTNGLREQGMEVVSIEGIHPKVMERLIEFAYTASISMGEKSVLHVMNGAVMYQIDSVVRACSDFLVQQLDPSNAIGIANFAEQIGCVELHQRAREYIYMHFGEVAKQEEFFNLSHCQLVTLISRD
